Article PMC10558642 (2023)

B1: His-OTUD5 (natural protein)
chain: MTILPKKKPPPPDADPANEPPPPGPMPPAPRRGGGVGVGGGGTGVGGGDRDRDSGVVGARPRASPPPQGPLPGPPGALHRWALAVPPGAVAGPRPQQASPPPCGGPGGPGGGPGDALGAAAAGVGAAGVVVGVGGAVGVGGCCSGPGHSKRRRQAPGVGAVGGGSPEREEVGAGYNSEDEYEAAAARIEAMDPATVEQQEHWFEKALRDKKGFIIKQMKEDGACLFRAVADQVYGDQDMHEVVRKHCMDYLMKNADYFSNYVTEDFTTYINRKRKNNCHGNHIEMQAMAEMYNRPVEVYQYSTGTSAVEPINTFHGIHQNEDEPIRVSYHRNIHYNSVVNPNKATIGVGLGLPSFKPGFAEQSLMKNAIKTSEESWIEQQMLEDKKRATDWEATNEAIEEQVARESYLQWLRDQEKQARQVRGPSQPRKASATCSSATAAASSGLEEWTSRSPRQRSSASSPEHPELHAELGMKPPSPGTVLALAKPPSPCAPGTSSQFSAGADRATSPLVSLYPALECRALIQQMSPSAFGLNDWDDDEILASVLAVSQQEYLDSMKKNKVHRDPPPDKS
modifications: Red-tris-NTA dye on the His tag (MST only)
B2: recombinant GPX4 protein (SPR and MST) (natural protein)
chain: MSLGRLCRLLKPALLCGALAAPGLAGTMCASRDDWRCARSMHEFSAKDIDGHMVNLDKYRGFVCIVTNVASQUGKTEVNYTQLVDLHARYAECGLRILAFPCNQFGKQEPGSNEEIKEFAAGYNVKFDMFSKICVNGDDAHPLWKWMKIQPKGKGILGNAIKWNFTKFLIDKNGCVVKRYGPMEEPLVIEKDLPHYF

Key:
[1] = biological target: B2; assay: SPR
[2] = biological target: B1; assay: MST

| Binder | Kd [1] [µM] | Kd [2] [µM] |
| --- | --- | --- |
| B1 | 0.72 | – |
| B2 | – | 0.23 |
